Experimental data as given in patent publication US20240228658A1.

Assays:
[1] = target: T1, human 5T4 on cells (human) (UniProt Q13641); assay: FACS, NCI-H226 cells
T1 sequence (looked up): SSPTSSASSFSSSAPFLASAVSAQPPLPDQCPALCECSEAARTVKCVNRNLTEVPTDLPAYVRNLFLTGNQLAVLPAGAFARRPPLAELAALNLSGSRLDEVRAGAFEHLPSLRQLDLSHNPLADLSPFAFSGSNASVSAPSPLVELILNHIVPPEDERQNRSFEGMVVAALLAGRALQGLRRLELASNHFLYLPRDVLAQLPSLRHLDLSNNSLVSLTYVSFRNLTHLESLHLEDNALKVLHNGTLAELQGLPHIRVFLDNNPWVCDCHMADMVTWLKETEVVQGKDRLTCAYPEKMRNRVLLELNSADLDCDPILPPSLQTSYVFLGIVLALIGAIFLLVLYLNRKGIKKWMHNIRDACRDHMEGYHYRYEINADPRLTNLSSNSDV

[2] = target: T2, h5T4-His (cat #19845-H08H, Sino Biological) (human) (UniProt Q13641); assay: ELISA, coated h5T4-His
T2 sequence (looked up): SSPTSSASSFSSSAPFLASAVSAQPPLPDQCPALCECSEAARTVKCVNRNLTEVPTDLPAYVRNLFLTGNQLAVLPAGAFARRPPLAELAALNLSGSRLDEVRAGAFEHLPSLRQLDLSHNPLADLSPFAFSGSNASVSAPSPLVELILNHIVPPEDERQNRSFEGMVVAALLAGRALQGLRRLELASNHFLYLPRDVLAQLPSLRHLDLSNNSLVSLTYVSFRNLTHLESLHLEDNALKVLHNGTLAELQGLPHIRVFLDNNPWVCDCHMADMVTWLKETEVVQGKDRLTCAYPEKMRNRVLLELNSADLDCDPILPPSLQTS

[3] = target: T1, human 5T4 on cells (human); assay: FACS, CHO cells over expressing human 5T4
[4] = target: T1, human 5T4 on cells (human); assay: FACS on CHO cells over expressing 5T4
[5] = target: T1, human 5T4 on cells (human); assay: FACS on NCI-H226 cells (endogenous 5T4)
[6] = target: T1, human 5T4 on cells (human); assay: cell-based or functional assay

B1: CD3X5T4_cl-16XNKG2A (protein, part only; not given: anti-CD3 Fab, anti-NKG2A scFv, linkers, not shown: another chain or arm of the molecule; small tags and cut ends)
VH: AVQLQQSGPVRVKPGASVKMSCKASGYPFTDYYMNWVKQSHGRSLDWIGVFNPYNGDTRYTQKFKDKATLTIDKSSSTAYMELNSLTSEDSAVYYCARLRLLYDTSEYYVMDYWGQGTSVTVSS
VL: ENVLTQSPAIMSASPGEKVTMTCSASSSVNYMHWYQQKSNTSPKLWIYDTSKLASGVPGRFSGSGSGNSYSLTISSMEAEDVATYFCFQGSGYPYTFGGGTKLEIK
EC50 (read off the curve) [1]: 6 nM
EC50 (read off the curve) [2]: 40 nM
EC50 (read off the curve) [3]: 3 nM

B2: IM-1178 Tribody (CD3x5T4_IM24xNKG2D) (protein, part only; not given: anti-CD3 Fab, anti-NKG2D scFv, linkers, not shown: another chain or arm of the molecule; small tags and cut ends)
VH: QVQLVQSGAEVKKPGASVKLTCTASGYTFTAYYMHWMRQAPGQGLEWMGIVLPGRGSTNYAQKFQGRVTVTRDTSTNTVYMELNSLTSEDTAVYYCVRGYRDFDYWGPGTLVTVSS
VL: ELVLTQSPATLSLSPGERATLSCKASQNVGTAVAWYQQKPGQAPRLLIYSASNRYTGIPARFSGSGSGTDFTLTVSSLEPEDFAVYYCQQYTSYPRTFGQGTKVEIK
EC50 [4]: 1.4 nM
EC50 [5]: 1.24 nM

B3: IM-1222 Tribody (5T4_IM53-CD3-NKG2A) (protein, part only; not given: anti-CD3 Fab, anti-NKG2A scFv, linkers, not shown: another chain or arm of the molecule; small tags and cut ends)
VH: QVQLVQSGAEVKKPGASVKVSCKASGYTFTDYYMNWVRQAPGRGLEWMGVFNPYNGDTRYTQKFKDRVTMTIDKSISTAYMELSRLRSDDTAVYYCARLRLLYDTSEYYVMDYWGQGTTVTVSS
VL: ENVLTQSPATLSLSPGERATLSCSASSSVNYMHWYQQKPGQSPRLLIYDTSKLASGIPARFSGSGSGTDYTLTISSLEPEDFAVYFCFQGSGYPYTFGGGTKVEIK
T cells mediated cytotoxicity (lactate dehydrogenase assay), EC50 [6]: 0.02 nM
EC50 [4]: 2.3 nM
EC50 [5]: 3.9 nM

B4: CD3x5T4-IM34xNKG2A (protein, part only; not given: anti-CD3 Fab, anti-NKG2A scFv, linkers, not shown: another chain or arm of the molecule; small tags and cut ends)
VH: AVQLVQSGAEVKKPGASVKVSCKASGYTFTDYYMNWVRQAPGQGLEWMGVFNPYNGDTRYTQKFKDKVTMTIDKSTSTVYMELNSLRSEDTAVYYCARLRLLYDTSEYYVMDYWGQGTTVTVSS
VL: ENVLTQSPATLSLSPGERATLSCSASSSVNYMHWYQQKPGQAPRLLIYDTSKLASGIPARFSGSGSGNDFTLTISSLEPEDFAVYYCFQGSGYPYTFGGGTKVEIK
EC50 (read off the curve) [3]: 6 nM

B5: CD3x5T4-IM51xNKG2A (protein, part only; not given: anti-CD3 Fab, anti-NKG2A scFv, linkers, not shown: another chain or arm of the molecule; small tags and cut ends)
VH: QVQLVQSGAEVKKPGASVKVSCKASGYTFTDYYMNWVRQAPGQGLEWMGVFNPYNGDTRYTQKFKDRVTMTRDTSISTAYMELSRLRSDDTAVYYCARLRLLYDTSEYYVMDYWGQGTTVTVSS
VL: ENVLTQSPATLSLSPGERATLSCSASSSVNYMHWYQQKPGQSPRLLIYDTSKLASGIPARFSGSGSGTDYTLTISSLEPEDFAVYFCFQGSGYPYTFGGGTKVEIK
EC50 (read off the curve) [3]: 5 nM

B6: CD3x5T4-IM49xNKG2A (protein, part only; not given: anti-CD3 Fab, anti-NKG2A scFv, linkers, not shown: another chain or arm of the molecule; small tags and cut ends)
VH: QVQLVQSGAEVKKPGASVKVSCKASGYTFTDYYMNWVRQAPGRGLEWIGVFNPYNGDTRYTQKFKDRATLTIDKSISTAYMELSRLRSDDTAVYYCARLRLLYDTSEYYVMDYWGQGTTVTVS
VL: ENVLTQSPATLSLSPGERATLSCSASSSVNYMHWYQQKPGQAPRLLIYDTSKLASGIPARFSGSGSGTDYTLTISSLEPEDFAVYYCFQGSGYPYTFGGGTKVEIK
EC50 (read off the curve) [3]: 5 nM

B7: CD3x5T4-IM50xNKG2A (protein, part only; not given: anti-CD3 Fab, anti-NKG2A scFv, linkers, not shown: another chain or arm of the molecule; small tags and cut ends)
VH: QVQLVQSGAEVKKPGASVKVSCKASGYPFTDYYMNWVRQAPGRGLEWIGVFNPYNGDTRYTQKFKDKATLTIDKSISTAYMELNRLRSDDTAVYYCARLRLLYDTSEYYVMDYWGQGTTVTVSS
VL: ENVLTQSPATLSLSPGERATLSCSASSSVNYMHWYQQKPGQAPRLLIYDTSKLASGIPARFSGSGSGTDYTLTISSLEPEDFAVYYCFQGSGYPYTFGGGTKVEIK
EC50 (read off the curve) [3]: 5 nM
